Results from the DeepSol protein solubility set.

Assay: soluble on expression in E. coli; label from the status in PepcDB or PDB records

Row | Sequence | soluble on expression in E. coli
1 | MSLTALMVGTGRGAKMGILIKNGEVLEAVNDVQTVVFDKTGTLTVGKPQVTDIIGDSKQVLRIAASLEDSSEHPLAAAILAKAKADNISTLPVENFTAIEGKGVAATISGQQGVVGNQKLLGDLTFNKQLQQQETRLQNEAKTVVFVGLDDRIIGLIAIQDAPKPTSKEAIAALRARGLRTVMLTGDNQRVAQAVAQQIGIDEVIADVLPGDKAAQIKQFQHDEGHHHHHH | soluble
2 | MLLQANRGLGLSAHIIDHCNLILKFPEGTNSTWYNAQFKVFEALEFKYNVCEAVLLWEQYRNMTTVLTREYLDVRPDGWLDYAAMRIAQLGADKCYNRTLCEEHLNVILPAKPPFHPRQFHKCAVVGNSGDLLKTEFGEEIDSHDAVFRDNEAPVNEKYAKYVGVKRDFRLVVRGAARNMIKILNGSDNEVLIIKSVTHRDFNEMIKRIPNPVYLFQGIVLRRGAKGTGMKSIELALSMCDIVDIYGFTVDPGYTEWTRYFSTPRKGHNPLQGRAYYQLLECLGVQITC | not soluble
3 | MGHHHHHHSHMEGSETGSREGSDVACTEGICNHDEHGDDSCVHHCEDKEDDGDSCVECWANSEENDTKGKNKKKKKKSKILKCDEHIQKLGSCITDPGNRETSGNTMHTVFHRDKTKDTHPESCCSSEKGGQPLPWFEHRKNVPQFAEPTETLFGPDSGKGAKSLVELLDESECTSDEEIFISQDEIQSFMANNQSFYSNREQYRQHLKEKFNKYCRLNDHKRPICSGWLTTAGAN | not soluble
4 | MIDWPLAELLPHAGDMILIDQVLAFDEEQIRTRLEVRPGGLFNRPDGSLPAWVGVELMAQSVAAYAGCRARQQGLPVELGFLLGTRKFECNVEHFPLGSTLEIHALRSLEDDNGMGVFECHLSGPGITASARLNVFRPPQAADYLHETPLEHHHHHH | not soluble
5 | MLIRQAGPADNAQLLDFQQRHAMRGSMPLRFDRSPDYFALHHCHAADHRTWIAQSPEGELRGSASLVVRDGYLQGSAEPIAYLGDLRLMPDRRLSRSWMAEVQTRLADLSLQTGAQHAYCCIIRDNPLAIQSLLGRRRANPLKLAHWRGYSNVSVYGQRGLSSAPRTHAGVRVVRAEPRHLDALRAFLDSESSRQSFGCVFSETEFERRISHWPDFAIGSFLLAVDERENLLGCVAPWDAGKIKRIVVEQMPVAQQLLRMGYNAVAPLAGRPGIASPGNPLRDIYLTHLQVRQRDPEVFAALLDVAWAQVRKDYSLMQLCLYDQDPLWLAMRRYRSVSLPMDLYTAPCGSNTPVFTETCAAGVPGFEIYLV | not soluble
6 | MWAVIRMRTFRRSTRNAVSRMRKPKPRASAKQRSLERHFGSRQPTKNKFLNAIYWGIRRCQYFLCCYDDEVEDELEDASANPFNTQPPGLDQLVQLTGFNRKWIMFMYRNFKQKCSNGRMTDSQWRILFRSIFPQANDSAFIDRLYAAIVKKKQHPQITFEDLILCLWELSEDGKTSEMGNYHINSSARAQFAFQLMDEEGKGRVDEPGFYKYTRCVFALTAVNKPCTDQIIDASTIGLPASSIYRSTSVDDVLKPMSPLIARFSSKRFKELDTDRDGFITVRDIERELEIQKNEAICLKSLKDFSFEDLKNEEDDDDEDDQDTNPLLSESSSFKKDV | not soluble
7 | MGHHHHHHSHAELSANQSRIDALEKAGQKLIDVNHYAKDEVAARMNEVISLWKKLLEATELKGIKLREANQQQQFNRNVEDIELWLYEVEGHLASDDYGKDLTNVQNLQKKHALLEADVAAHQDRIDGITIQARQFQDAGHFDAENIKKKQEALVARYEALKEPMVARKQKLADSLRLQQLFRDVEDEETWIREKEPIAASTNRGKDLIGVQNLLKKHQALQAEIAGHEPRIKAVTQKGNAMVEEGHFAAEDVK | soluble
8 | MSLSDPNTSGSGVVGESSGVRVAIEGCGHGCLHSIYASVERAAALKGWDGVDLLIIGGDFQAVRNSNDMACMSVPNKYKEIGDFHEYYSGQRTAPYLTIFVGGNHEASNHLFELYYGGWVAPNIYYMGAANVLRFGPLRIAGLSGIWKGRDYRKPHFERLPYNDDDIKSIYHVRELDVRKLLQVRTQIDVGLSHDWPRQIEYCGDWQQLFRAKPLFRRDSQNGTLGSTAAEYVLNRLRPAYWFSAHLHVKFAASVQHGPQEVVPNRQYGLDGASLTSMLSETEEASRQTGYSQAEAEPNAHAVSETGTTEEGHHHHHH | soluble
9 | MEANMPKRKEPGRSLRIKVISMGNAEVGKSCIIKRYCEKRFVSKYLATIGIDYGVTKVHVRDREIKVNIFDMAGHPFFYEVRNEFYKDTQGVILVYDVGQKDSFDALDAWLAEMKQELGPHGNMENIIFVVCANKIDCTKHRCVDESEGRLWAESKGFLYFETSAQTGEGINEMFQTFYISIVDLCENGGKRPTTNSSASFTKEQADAIRRIRNSKDSWDMLGVKPGASRDEVNKAYRKLAVLLHPDKCVAPGSEDAFKAVVNARTALLKNIK | soluble
10 | MGSDKIHHHHHHMEWQAEQAYNHLPPLPLDSKLAELAETLPILKACIPARAALAELKQAGELLPNQGLLINLLPLLEAQGSSEIENIVTTTDKLFQYAQEDSQADPMTKEALRYRTALYQCFTQLSNRPLCVTTALEICSTIKSVQMDVRKVPGTSLTNQATGEVIYTPPAGESVIRDLLSNWEAFLHNQDDVDPLIKMAMAHYQFEAIHPFIDGNGRTGRVLNILYLIDQQLLSAPILYLSRYIVAHKQDYYRLLLNVTTQQEWQPWIIFILNAVEQTAKWTTHKIAAARELIAHTTEYVRQQLPKIYSHELVQVIFEQPYCRIQNLVESGLAKRQTASVYLKQLCDIGVLEEVQSGKEKLFVHPKFVTLMTKDSNQFSRYAL | not soluble
11 | MDIWVNLLSDRLESPNFEFITDFIGGKCVVQKDYLEDEKSQSSSGWLLHVYFRPEEFLDRPFVADIIFRCGTRRREVFSVLLKNDCFFAHMRVKEKTGRLIIAARIRKMLCELDLSKPSGSRQFVVQNFENQLKDGRIFYVNLAKLGQIGGDLFKKWQTVENVQQLSLANETMENRMIEVLMEATAKYDDIVVIRHSFHRLIQLAQTYRMHKLMRVIEENLSETKLMNWDEKILLALQYRMSQLYVQVQRKYLLTPWNILCRIQRLYLSNYAAKSGNASNPYDMIHKNLMQMVMMSDENICIG | not soluble
12 | IDEKGRVIIAGIGRFGQVVNRLVRMSGIETVVLDHDMAAVQIMRRFGVKGFFGDPTRPELLQAAGLAEATVLVVAVDDRENAIKIVRYARQVRPDLHIVSRARDRVHVYELYQAGADDIVRETFDSSIRAGRYVLENMGF | not soluble
13 | MHDVMELRNLSMVDLQTFNTQFSKITDRYWREIFRRQNDSHHPDHINVSRLQTANIITVLDENLPQGAIQELTITGLIPKPFSSRRCEVMRYLRERLSCSPDVELSFQGDQLRITNPTLNLENVPVLSMEKH | not soluble
14 | MMKPIAVSQLSDNFFETISKEWMLVTAGNKNAFNTMTANWGGIGFLWNKPVVYVFIRPERYTFGFMEKSDYFTLSFLGEENKSIHKICGSKSGREVDKIKETGLKPMITDKGNVLFEQGRLSLECRKLYTDVLRKENFLDPSVYEQWYTTHGGLHHVYVAEITSAWIKD | not soluble
15 | MAGNFWQSSHYLQWILDKQDLLKERQKDLKFLSEEEYWKLQIFFTNVIQALGEHLKLRQQVIATATVYFKRFYARYSLKSIDPVLMAPTCVFLASKVEEFGVVSNTRLIAAATSVLKTRFSYAFPKEFPYRMNHILECEFYLLELMDCCLIVYHPYRPLLQYVQDMGQEDMLLPLAWRIVNDTYRTDLCLLYPPFMIALACLHVACVVQQKDARQWFAELSVDMEKILEIIRVILKLYEQWKNFDERKEMATILSKMPKPKPPPNSEGEQGPNGSQNSSYSQS | soluble
16 | MSLAQISKYKRVVLKLSGEALAGEKGFGINPVIIKSVAEQVAEVAKMDCEIAVIVGGGNIWRGKTGSDLGMDRGTADYMGMLATVMNALALQDSLEQLDCDTRVLTSIEMKQVAEPYIRRRAIRHLEKKRVVIFAAGIGNPYFSTDTTAALRAAEVEADVILMGKNNVDGVYSADPKVNKDAVKYEHLTHIQMLQEGLQVMDSTASSFCMDNNIPLTVFSIMEEGNIKRAVMGEKIGTLITKEGHHHHHH | soluble
17 | MSEMLNHVASCRLPTEWGVFTMHGFEEANGQEHVALTVGNFSDGNPVLTRIHSECLTGDALFSRKCDCGPQLEAAMRAVQTEGRGIIVYLRQEGRGIGLINKIRAYHLQDQGMDTVEANLALGLPVDARDFRLAQSIYEYLGIRSVKLLTNNPEKIQTLKDAGINVVERIPLHVGENLENKRYLQTKADKLGHLMSE | not soluble
18 | MAHHHHHHMQHSLRGDFVTQRSTCFRTEKERKQKALNLIKNENNAEGYFNNLNFNLEYTEELNEQITSLDPKTSIQELTNIFNDLNENRKKNFHYLIEALENVSLILAHQNDIPEKHRKSTWCKIKHDLQCDFIKEHPNIHSNFDVFIRKIQSIDEFISYIKECIHSWNNFTNEKKLQYFPKVYETYQSDKICKENNYKKINNKTECNPKESIKNESIPKECIPNENMKKECVPNGCMKKQCVPKECMKKECVTNGHMKKQCVPNECMKKQCVPKECMKKECVPNGCMKKECTPNKNDKNVNRTDINNQNKTNEKLCDKKEKKRLPSK | soluble
19 | MSLSIPDRRAKLDRAHGVLSIRRQCRLLGLSRSSVYRTPLPANDDDLALMRRIDELFTARPFLGSRRMAWLISEDGVRINRKRVQRLMRKMGIEALGPKPRTSKPAPGHRIYPYLLRAMTIDRPNQVWATDITYIPMGRGFLYLVAVIDWASRAVLSWRLSNTMDVSFCVDALEEALSRFGKPQIFNTDQGSQFTSAAFTSVLEAAGIQISMDGRGRWMDNVFIERLWRSLKHEDVYLKFNEGHHHHHH | not soluble
20 | GPGHMEGLRCVVLPEDLCHKFLQLAESNTVRGIETCGILCGKLTHNEFTITHVIVPKQSAGPDYCDMENVEELFNVQDQHDLLTLGWIHTHPTQTAFLSSVDLHTHCSYQLMLPEAIAIVCSPKHKDTGIFRLTNAGMLEVSACKKKGFHPHTKEPRLFSICKHVLVKDIKIIVLDLR | soluble
21 | MPVDKNLRDLEPGIHTDLEGRLTYGGYLRLDQLLSAQQPLSEPAHHDEMLFIIQAQTSELWLKLLAHELRAAIVHLQRDEVWQCRKVLARSKQVLRQLTEQWSVLETLTPSEYMGFRDVLGPSSGFQSLQYRYIEFLLGNKNPQMLQVFAYDPAGQARLREVLEAPSLYEEFLRYLARFGHAIPQQYQARDWTAAHVADDTLRPVFERIYENTDRYWREYSLCEDLVDVETQFQLWRFRHMRTVMRVIGFKRGTGGSSGVGFLQQALALTFFPELFDVRTSVGVDNRPPQGSADAGKRLEHHHHHH | soluble
22 | ASGSSFASTRKLLNRHSLHTVCRSAMCPNLHECWSKGTATFLLLGNVCTRSCRFCAVGTECRPAMPDPEEPSKIAEAVKTMKLRHAVLTSVNRDDLADGGATHWVETIRAIREVNPGVSLECLIPDFSGNEQSLDLVMQELPEVLNHNIETVPSRYAAVRPQALYERSLAVIERAKRQFRLATKSGMMVGMGETEEELEASLHDLRGHGCDMVTIGQYLQPTAAHLPVSRYVTPEEFERYREIALDAGFRHVQSGPFVRSSYHAEAFEPVEK | not soluble
23 | MSYGDGLSGAEYLASIYGTEKDKVNCSFFFKTGACRHGDKCSRAHHTPTFSPTVVLKNFYHNPVVDVRQADAFDKVGKRNDQEQRYFDDFYEEVFVEMERKYGEVEEINVCENIGEHMVGNVYVKFMKEEDAEKAKNDLNNRWFNGQPIYAELCPVTDFRESRCRQHEVTTCSKGGFCNFMHLKAISAELGDRLYGRRGRRADAAGHYPSQRGGSGGGGGGGGGGGYGSGGGWGGGGGGRDRDRGGWGGGGGGRGYGGGGGGGGYGYGGGGGGRRRSRSRDRRRY | not soluble
24 | MLLQVHRLLFEKFYPWAGRDRLELVPHLSVWKGPKGAPRRTFFESPAMIERAVDYALSLASKKQGFMQKPGEVMGLLCFAHPFLDGNGRSILLFYMELSYRAGFAIDWASTRKDDYLQALDDEIHNPGKGHL | soluble
